The supplement of paper PMC9112550, “Optimization of the antimicrobial peptide Bac7 by deep mutational scanning” (BMC Biology, 2022)

system: Escherichia coli TOP10; assay: shrunken log2 fold change of peptide-encoding DNA abundance (4.5 h post-induction vs induction); higher = less antimicrobial activity (less host growth inhibition); details: time post-induction: 4.5 h; library: site-saturation at positions 5, 18, 19, 20
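Also: peptides expressed intracellularly from a pBAD plasmid library in pooled LB shake-flask culture, induced with 0.3% L-arabinose, DNA abundance read by NGS, three biological replicates, DESeq2 with apeglm shrinkage.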

Sequence	shrunken log2 fold change
RRIRYRPPRLPRPRPRPQHTPRP	-0.671
RRIRVRPPRLPRPRPRPGIYPRP	-0.623
RRIRIRPPRLPRPRPRPKTMPRP	-0.198
RRIRPRPPRLPRPRPRPIRPPRP	0.184
RRIRTRPPRLPRPRPRPSWYPRP	-1.12
RRIRVRPPRLPRPRPRPSRKPRP	0.00977
RRIRIRPPRLPRPRPRPWENPRP	-0.00674
RRIRYRPPRLPRPRPRPRAKPRP	0.404
RRIRDRPPRLPRPRPRPLAGPRP	0.121
RRIRKRPPRLPRPRPRPVQEPRP	0.0683
RRIRHRPPRLPRPRPRPYVCPRP	0.0124
RRIRRRPPRLPRPRPRPNNRPRP	-0.0987
RRIRGRPPRLPRPRPRPCCDPRP	0.769
RRIRDRPPRLPRPRPRPLVWPRP	0.831
RRIRHRPPRLPRPRPRPVYHPRP	-0.282
RRIRKRPPRLPRPRPRPASLPRP	-0.23
RRIRFRPPRLPRPRPRPFAPPRP	0.0349
RRIRGRPPRLPRPRPRPRYHPRP	-0.0711

Sequence	shrunken log2 fold change
RRIRERPPRLPRPRPRPANHPRP	-0.00846
RRIRYRPPRLPRPRPRPKARPRP	0.0182
RRIRCRPPRLPRPRPRPEWYPRP	-0.256
RRIRIRPPRLPRPRPRPGDGPRP	0.281
RRIRWRPPRLPRPRPRPAKRPRP	-0.0468
RRIRPRPPRLPRPRPRPCDHPRP	-0.128
RRIRLRPPRLPRPRPRPTNHPRP	-0.174
RRIRHRPPRLPRPRPRPEHQPRP	-0.291
RRIRPRPPRLPRPRPRPNQNPRP	-0.178
RRIRNRPPRLPRPRPRPDGEPRP	-0.00776
RRIRWRPPRLPRPRPRPGSPPRP	0.0119
RRIRMRPPRLPRPRPRPSCCPRP	0.291
RRIRSRPPRLPRPRPRPYREPRP	0.0503
RRIRARPPRLPRPRPRPYQDPRP	-0.00221
RRIRCRPPRLPRPRPRPTGCPRP	-0.0358
RRIRGRPPRLPRPRPRPFYDPRP	0.0844
RRIRGRPPRLPRPRPRPRSCPRP	0.759
